{"source": "patent US20100203150A1", "about": "“Novel amphiphilic copolymers and fabrication method thereof” (priority 2009, published 2010)", "assay": "Solubility in common solvents and co-solvents", "conditions": "some common organic solvents and co-solvents", "data": [{"substance": "5′-deoxy-5-fluorouridine-poly(ε-caprolactone) [5′-DFUR-PCL]", "values": [{"measurement": "solubility", "value": "soluble"}]}]}
